Data from patent publication US20240218057A1 (ROCKEFELLER UNIVERSITY, published 2024).

Experiments:
[1] = target: T1, SARS-CoV-2 receptor-binding domain (WT RBD; S protein residues 319-539) (SARS-CoV-2, UniProt P0DTC2 319-539); assay: BLI (Octet Red), IgG on protein A biosensor, WT RBD in solution, 1:1 fit
T1 construct: also called SARS-COV-2 RBD

[2] = target: SARS-COV-2 RBD (SARS-COV-2, UniProt P0DTC2 319-539); assay: ELISA, RBD coated

| Binder | Kd [1] [nM] | EC50 [2] [ng/mL] |
| --- | --- | --- |
| C853 (antibody, V domains shown) VH: QVQLQESGPGLVKASQTLSLTCTVSGGSFRSGGYYYNWIRQHPGKGLEWIGYIFYTGVTYYNPSLKSRVSISVDTSKNQLSLNLTSVTAADTAVYYCARGSYSDYNGGWDYWGRGTLVTVS VL: QSALTQPPSASGSPGQSVTISCIGTSSDVGGYNYVSWYQHHPGKAPKLIIYEVSKRPSGVPDRFSGSKSGNTASLTVSGLQADDEADYYCSSYAGSNNWVFGGGTKLTV | 5.88 |  |
| C888 (antibody, V domains shown) VH: EVQLVESGGGLVQPGGSLRLSCAASGFTVSSNYMSWVRQAPGKGLEWVSVIYSGGSAYYADSVKGRFTISRDNSKNTLYLQMNSLRAEDTAVYYCARDLRDQDGYSYGAFDYWGQGTLVTVSS VL: QSALTQPASVSGSPGQSITISCTGTSSDVGGYNYVSWYQQHPGKAPKLMIYDVSNRPSGVSNRFSGSKSGNTASLTISGLQAEDEADYYCSSYTSSSSWVFGGGTKLTVL | 1390 |  |
| C1008 (antibody, V domains shown) VH: EVQLVESGGGLIQPGGSLRLSCAASGFTVSSNYMSWVRQAPGKGLEWVSVIYSGGSTYYADSVKGRFTISRDNSKNTLYLQMNSLRAEDTAVYYCARVVGYDFWSGYDGGYFDYWGQGTLVTVSS VL: QSALTQPASVSGSPGQSITISCTGTSSDVGSYNLVSWYQQHPGKAPKLMIYEVSKRPSGVSNRFSGSKSGNTASLTISGLQAEDEADYYCCSYAGSSTWVFGGGTKLTVL | 500 |  |
| C1003 (antibody, V domains shown) VH: QVQLVESGGGVVQPGRSLRLSCAASGFAFSSYGMNWVRQAPGKGLEWVTTVSSDGNVNYYIDSVKGRFTISRDNSKNTLYLQMNSLRGDDTAVYYCAKGPRFGWSYRGGSGFDIWGQGTMVTVSS VL: DIQMTQSPSSLSASVGDRVTITCQASQDISNYLNWYQQKPGKAPKLLIYDASNLETGVPSRFSGSGSGTDFTFTITSLQPEDIATYYCQQYDNLPITFGQGTRLEIK | 90.9 |  |
| C936 (antibody, V domains shown) VH: EVQLVESGGGLIQPGGSLRLSCAASGFTVSSNYMSWVRQAPGKGLEWVSVIYSGGSTFYADSVKGRFTISRDNSKNTLYLQMNSLRAEDTAVYYCARDLGTGLFDYWGQGTLVTVSS VL: DIQLTQSPSFLSASVGDRVTITCRASQGISSYLAWYQQKPGKAPKLLIYAASTLQSGVPSRFSGSGSGTEFTLTISSLQPEDFATYYCQQLDSYPPGTFGPGTKVDIK | 667 |  |
| C929 (antibody, V domains shown) VH: EVQLVESGGGLIQPGGSLRLSCAASGFTVSSNYMTWVRQAPGKGLEWVSVIYSGGTTYYADSVKGRFTISRDNSKNTLYLQMNSLRAEDTAVYYCARDLVVWGMDVWGQGTTVTVSS VL: DIQLTQSPSFLSASVGDRVTITCRASQGISSYLAWYQQKPGKAPKLLIYAASTLQSGVPSRFSGSGSGTEFTLTISSLQPEDFATYYCQLLNSYPYTFGQGTKLEIK | 0.127 |  |
| C937 (antibody, V domains shown) VH: EVQLVESGGGLIQPGGSLRLSCAASELTVSSNYMSWVRQAPGKGLEWVSVIYPGGSTFYADSVKGRFTISRDNSKNTLYLQMNSLRAEDTAVYYCARDLGTGLFDYWGQGTLVTVSS VL: DIQLTQSPSFLSASVGDRVTITCRASQGISSYLAWYQQKPGKAPKLLIYAASTLQSGVPSRFSGSGSGTEFTLTISSLQPEDFATYFCQLLNSNPPGTFGPGTKVDIK | 3.03 |  |
| C930 (antibody, V domains shown) VH: EVQLVESGGGLFQPGGSLRLACAASGITVSSNYMSWVRQPPGKGLEWVSVIYAGGSTFYADSVKGRLTISRDNSKNTLYLQINSLRAEDTAVYYCARDLVVWGMDVWGQGTTVTVSS VL: DIQLTQSPSFLSASVGDRVTITCRASQGISSYLAWYQQKPGKAPKLLIYAASTLQSGVPSRFSGSGSGTEFTLTISSLQPEDFATYYCQQLNTYPYTFGQGTKLEIK | 0.323 |  |
| C1010 (antibody, V domains shown) VH: QVQLVESGGGVVQPGRSLRLSCAASGFTFSSYAMHWVRQAPGKGLEWVAVISYDGSNKYYADSVKGRFTISRDNSKNTLYLQMNSLRAEDTAVYYCAKKGQPYCGGDCYFYYFDYWGQGTLVTVSS VL: DIQMTQSPSSLSASLGDRVTITCQASQDISNYLNWYQQKPGKAPKLLIYDASNLETGVPSRFSGSGSGTDFTFTISSLQPEDIATYYCQQYDNLPPITFGQGTRLEIK | 62.5 |  |
| C1002 (antibody, V domains shown) VH: EVQLVESGGGLVQPGGSLRLSCAASEFIVSSNYMTWVRQAPGKGLEWVSIMYPGGSTFYADSVKGRFTISRDNSKNTLYLQINRLRAEDTAVYYCARDIAGRLDYWGQGTLVTVSS VL: DIQMTQSPSSLSASVGDRVTITCQASQDINNYLNWYQQKPGKAPKLLIYDASNLETGVPSRFSGSGSGTDFSFTISSLQPEDIATYYCQQYDNLSRLTFGGGTKVEIK | 0.00196 |  |
| C1011 (antibody, V domains shown) VH: QVQLVESGGGVVQPGRSLRLSCAVSGFTFSHYAMHWVRQAPGKGLEWVAVISYDGADKYYADSVRGRFTIARDNSKNTLFLQMSSLRPEDTAVYYCAKKGQPYCGGDCHFYYLDYWGQGTLVTVSS VL: DIQMTQSPSSLSASVGDRVTITCQASQDISNHLNWYQQKPGKAPKLLIYDASNLETGVPSRFSGSGSGTDFTFTISSLQAEDIATYYCQQYDNLPPITFGQGTRLEIK | 0.0833 |  |
| C1027 (antibody, V domains shown) VH: EVQLVESGGGLVQPGGSLRLSCAASGFIVTTNYMSWVRQAPGKGLEWVSLIYPGGSTFYADSVEGRFTISRDNSKNTLYLQVNSLRVEDTAVYYCARDTFGRGDDHWGQGTLVTVSS VL: DIQMTQSPSSLSASVGDRVTITCQASQDINIYLNWYQQRPGKAPKLLIYDASNLQTGVPSRFSGSGSGTDFTITISSLQPEDIATYYCQQYDNLPRSFGQGTKLEI | 0.0114 |  |
| C889 (antibody, V domains shown) VH: EVQLVESGGGLVQPGGSLRLSCAVSGFTVSSNYMTWVRQAPGKGLEWVSLIYSGTSAFYADSVKGRFTISRDNSKNTLYLQMSSLRVNDTAIYYCARDLRKDDGYSYGAFDYWGQGTLVTVSS VL: QSALTQPASVSGSPGQSITISCSGTSSDVGAHNYVSWYQQYPGKAPKLMIFDVTDRPSGVSNRFSGSKSGNTASLTISGLQAEDEADYYCTSYTTNRSWVFGGGTKVTVL | 4.17 |  |
| C916 (antibody, V domains shown) VH: EVQLVESGGGLVQPGGSLRLSCAASGFTFSNYDMHWVRQATGRGLEWVSTIGTAGDTYYPGSVKGRFTISRENAKNSLYLQMNSLRAGDTALYYCARVRYDSSGYFWSLDYWGQGTLVTVSS VL: not shown | 3.45 |  |
| C917 (antibody, V domains shown) VH: EVQLVESGGGLVQPGGSLRLSCAASGFTFSNYDMHWVRQATGKGLDWVSTIGTAGDTYYPGSVKGRFTISRENAKNSLYLQMNSLRAGDTAVYYCARVRFDTSGYFWSLDYWGQGTLVTVSS VL: not shown | 0.101 |  |
| C841 (antibody, V domains shown) VH: EVQLVESGGGLVQPGGSLRLSCAASGFTFSIFSMNWVRQAPGKGLEWISYISSSSGSRHYADSVKGRFTISRDNAKNSLYLQMNNLRDEDTAMYYCAREAHDGALTGYGDYLNWFDPWGQGVLVTVSS VL: SYELTQPPSVSVAPGKTARIPCGGDSVGSKSVHWYQQKSGQAPVLVIHSDSDRPSGIPERFSGSNSGNTATLTITGVAAGDEADYYCHVWDTIGDRFYWVFGGGTKLTVL | 1.64 |  |
| C046 (antibody, V domains shown) VH: EVQLVESGGGLAQPGRSLRLSCAASGFTFDDYAMHWVRQAPGKGLEWVSGINWNSGSLGYADSVKGRFTISRGIAKNSLYLQMNSLRPEDTAFYYCAKAGVRGIAAAGPDLNFDYWGQGTLVTVSS VL: EIVLTQSPATLSLSPGERATLSCRASQSVSSYLAWYQQKPGQAPRLLIYDASNRATGIPARFIGSGSGTDFTLTISSLEPEDFAVYYCQQRITFGQGTRLEIK |  | 4.02 |
| C840 (antibody, V domains shown) VH: QVQLVESGGGVVQPGRSLRLSCEASGFTFTAYAMHWLRQAPGKGLEWVAVILNDGSNKLYADSVKGRFTVSRDNSKNMLYLQVNSLRVDDTAVYYCARDGSVDTLMVTWFDYWGQGTLVTVSS VL: DIQMTQSPSSLSASVGDRVTITCRASQSVNNYLNWYQQKPGQAPKLLIYAASSLQSGVPLRFSGSGSGTDFALTITSLHTEDFATYYCQQSYNTPPWTFGPGTKVEIK | 5.56 |  |
| C952 (antibody, V domains shown) VH: EVQLVQSGAEVKKPGESLTISCKDSGNSFTIYWIGWVRQMPGKGLEWMGMIYPGDSGTRYSPSFEGQVTISADESINTAYLQWRSLKASDTAMYYCVRGIAVDWYFDLWGRGTLVTVSS VL: QSVLTQPPSVSGAPGQRVTISCTGSSSNIGAGFDVHWYQQLPGTAPKLLIYGNNNRPSGVPDRFSGSKSATSASLAITGLQAEDEADYYCQSSDSSLSGLYVFGTGTNVIV | 0.172 |  |
| C871 (antibody, V domains shown) VH: EVQLVESGGGLIQTGGSLKLSCAASGFIVTNNYMSWVRQAPGKGLEWVSVIYSGGTTYYADSVKGRFTISRDISKNTLYLQMNSLKAEDTAVYYCAREGDVEGISDSWSGYSRDRYYFDHWGQGTLVTVSS VL: QSALTQPASVSGSPGQSITISCTGTSSDVGGYNYVSWYQQHPGKAPKLMIYDVSNRPPTISNRFSGSKSGNTASLIISGLQPEDEADYYCSSFTSNNTRVFGTGTKVTVL | 3.7 |  |
| C881 (antibody, V domains shown) VH: EVQLVESGGGLIQPGGSLRLSCAVSGVAVSTNYMSWVRQAPGQGLEWVSTIYSGDTTYYSDSVKGRFTISRDNSKNTFYLQMNSLRVPDTAVYYCARLGGVFNGFNGSFDYWGQGTLVTVS VL: QSALTQPASVSGSPGQSITISCIGTSSDFENYNLVSWYQQHPGKAPKVMIYEDTKRPSGVSNRFSGSKSANTASLTISGLQAEDEAEYYCCSYAGASTWVFGGGTRVTVV | 5.26 |  |
| C934 (antibody, V domains shown) VH: QVQLVQSGAEVKKPGASVKVSCKASGYTFTDYYIHWVRQAPGQGLEWMGWINPNSGGTNYAQKFQGRVTMTRDTSISTAYMDLSRLRSDDTAVYYCARDVIITMGRGVVFRMDVWGQGTTVTVSS VL: not shown | 100 |  |
